We go through five molecules from US20180267027A1, “FLUORESCENT BIOSENSOR FOR […] ASSAY” (The Regents of the University of California, priority 2015, published 2018).

Read-outs that look alike come from different tables or passages of the source.

The conditions of series [1]: literature value (Nawrocki et al.); cited from earlier work.
A short description of series [2]: Photophysical properties and fluorescence quantum yields of DFHBI and RNA-DFHBI complexes. Particulars: this work. Type of series: physicochemical. On the procedure:
The absorbance was measured at 448 nm and the fluorescence emission spectra was measured with 448 nm excitation for three different concentrations of the Acridine Yellow standard. The absolute quantum yield of Acridine Yellow was taken to be 0.47 as reported by Olmsted, Journal of Physical Chemistry 1979, 83, 2581-2584. The refractive index (η) was taken as 1.36 for ethanol and 1.333 for water (E. Hecht, Optics (4th edition), 2001). UV absorbance and fluorescence spectra were recorded on a Shimadzu 2501 Spectrophotometer (Shimadzu) or a Quantamaster Master 4 L-format scanning spectrofluorometer (Photon Technologies International) equipped with an LPS-220B 75-W xenon lamp and power supply, A-1010B lamp housing with integrated igniter, switchable 814 photon counting/analog photomultiplier detection unit, and MD5020 motor driver.
Quantum yields for DFHBI or RNA-DFHBI complex were determined by measuring the apparent quantum yields (Φsample.app) as a function of increasing total RNA (Ctotal RNA) at a fixed concentration of total DFHBI (CDFHBI). […] The RNA was renatured in buffer at 70° C. for 3 min and cooled to ambient temperature for 5 min prior to addition to the reaction solution. The DFHBI concentration was fixed at 10 or 20 μM in different replicates. The apparent quantum yield is described using the following equation: […]
Then, the apparent quantum yield is related to the dissociation constant Kd and concentration of DFHBI by the following equation: […]
Thus, the dissociation constants Kd and the quantum yield (Φsample) of RNA-DFHBI complexes were determined by least squares fitting to the above equation in Graphpad Prism software.

Series [3] deals with T1, protein lysine MTase SET7/9 (Homo sapiens, UniProt Q8WTS6).
T1 construct: purchased New England Biolabs Inc (Ipswich, Mass.)
T1 sequence (Q8WTS6 1-366): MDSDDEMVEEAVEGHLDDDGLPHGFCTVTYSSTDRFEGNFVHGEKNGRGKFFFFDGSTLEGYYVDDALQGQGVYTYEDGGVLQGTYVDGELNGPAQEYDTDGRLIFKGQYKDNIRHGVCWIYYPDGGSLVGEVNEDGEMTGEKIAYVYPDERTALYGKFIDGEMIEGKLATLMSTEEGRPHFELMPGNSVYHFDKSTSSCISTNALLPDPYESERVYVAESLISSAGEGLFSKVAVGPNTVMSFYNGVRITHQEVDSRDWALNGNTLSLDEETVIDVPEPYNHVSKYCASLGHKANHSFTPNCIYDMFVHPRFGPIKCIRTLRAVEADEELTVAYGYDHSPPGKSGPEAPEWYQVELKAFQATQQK
In words: Protein MTase SET7/9 inhibition assay read out with Aeh1-4 biosensor. Type of series: biochemical. The method, then: To initiate the enzyme reaction, 5 μL of H3 peptide substrate (N′-[…]-LAGGKKC-C′) (SEQ ID NO:132) was added to 5 μL of 2×enzyme reaction solution containing SET7/9, SAM, and NEB HMT buffer. Generally, final concentrations are 50 μM H3 peptide, 0.1 U/μL SET7/9, 25 μM SAM, and lx NEB HMT buffer (50 mM Tris, pH 9.0, 5 mM MgCl2, and 4 mM DTT). The reaction solution was incubated at 37° C. for 2 hours to allow the enzyme reaction to proceed.
For the kinetics assay, the reaction conditions are the same as described above except 0.05 U/μL SET7/9 was used, and the enzyme reaction was heat inactivated at different time points. For the inhibition assay, the reaction conditions are the same as described in kinetics assay except varied concentrations of sinefungin was added to the enzyme reaction solution, the reaction solution was incubated at 37° C. for 6 min (see FIG. 16), then heat inactivated by incubation at 65° C. for 15 min. For the inhibition assay shown in FIG. 17, the reaction conditions are the same as described above except 40 μM H3 peptide, 0.1 U/μL SET7/9, 40 μM SAM were used instead.
To initiate the fluorescent biosensor reaction, 10 μL of the enzyme reaction was added to 90 μL of biosensor reaction solution containing renatured RNA, DFHBI, and buffer. […] In vitro fluorescence assays were conducted as described above.

For series [4], the system named is E. coli BL21* cells. In words: In vivo fluorescence of RNA aptamers by flow cytometry. Particulars: 100 μM DFHBI. Type of series: cell-based. The method, then: To compare the fluorescence of Spinach2 and cpSpinach2 in live cells, pET31b plasmids encoding the RNA aptamers in a tRNA scaffold were transformed into E. coli BL21* cells. Following IPTG induction of transcription, cells were incubated with DFHBI and fluorescence was quantitated by flow cytometry. The mean cellular fluorescence was measured as a function of increasing DFHBI concentration in the media, in order to determine the optimal conditions for aptamer fluorescence. Unexpectedly, full saturation of fluorescence was not observed, even when E. coli cells were incubated in media containing up to 800 μM DFHBI (FIG. 5). However, the non-specific fluorescence signal increased when DFHBI concentration exceeded 100 μM. Thus, to balance higher fluorescence activation and lower non-specific background, a concentration of 100 μM was adopted for further experiments. Under these conditions, cellular fluorescence activation for Spinach2 and cpSpinach2 was on average 34 and 22-fold over background, respectively (FIG. 6). Thus, cpSpinach2 is a functional alternative to Spinach2. Although it currently performs slightly poorer in terms of fluorescence activation in live cells, improvements are likely possible through directed mutagenesis for higher thermal stability, improved folding efficiency and less Mg^2+ dependency. […]

Series [5] can be described thus: In vitro fluorescence assays of SAH biosensors (turn-on, ligand selectivity). Particulars: for fluorescence in the presence of ATP: 10 mM ATP; for fluorescence response to SAH at low magnesium: 3 mM magnesium; for fluorescence turn-on: 37° C., 10 mM Mg^2+. Type of series: biochemical. The method, then: Other conditions, including temperature, concentrations of MgCl2, DFHBI, ligand or RNA, were varied in different experiments and are indicated in the figures. The RNA was renatured in buffer at 70° C. for 3 min and cooled to ambient temperature for 5 min prior to addition to the reaction solution. DFHBI was added to a solution containing buffer and ligand, and then RNA was added at the end before fluorescence measurement. Binding reactions were performed in 100 μL volumes and were incubated at the indicated temperature in a Corning Costar 3915 96-well black plate until equilibrium was reached, which in some cases takes 30 to 60 minutes. The fluorescence emission was measured using a Molecular Devices SpectraMax Paradigm Multi-Mode detection platform plate reader (Sunnyvale, Calif.) with the following instrument parameters: 448 nm excitation, 506 nm emission.

The nature of series [6]: Binding affinity analysis of SAH biosensors. On the procedure: The SAH concentration (cSAH) was varied, and the fluorescence of the sample with DFHBI but no RNA was subtracted as background to determine relative fluorescence units. The ratio between the fraction of biosensor that is bound by SAH and the total SAH biosensor concentration is given as:
The dissociation constants Kd were determined by least squares fitting to the following equation in Graphpad Prism software: […]

For series [7], the system named is E. coli BL21* wild-type and ΔMTAN cells. In words: Live cell detection of SAH accumulation, wild-type versus MTAN knockout, flow cytometry. Particulars: E. coli BL21* MTAN knockout strain 2. Type of series: cell-based. On the procedure:
A Targetron® Gene Knockout System (Sigma-Aldrich) was used to knock out the MTAN gene from E. coli BL21*, following manufacturer protocols.
Preparation of cell samples for flow cytometry was carried out by inoculating 2 mL of auto-induction media/Carb (F. Studier, Protein Expression and Purification 2005, 41, 207-234) with E. coli BL21* cells from colonies grown on an LB/Carb culture plate, containing pET31b plasmids encoding RNA aptamers. […] Cells were then grown aerobically overnight to saturation (0D600 varied from 5 to 10) and diluted to OD600˜0.01-0.05 in M9 minimal media (pH ˜6.0) with 100 μM DFHBI-1T. Cellular fluorescence was measured for 30,000 cells using a Life Technologies Attune N×T Acoustic Focusing Cytometer.
(In general: Flow cytometry measures light scatter and fluorescence of single cells or particles in a stream.)

For series [8], the target named is T2, SET7/9 (Homo sapiens, UniProt Q8WTS6).
T2 construct: purchased New England Biolabs Inc (Ipswich, Mass.)
T2 sequence (Q8WTS6 1-366): T1 sequence (Q8WTS6 1-366)
Description: High-throughput screening (HTS) assay of SET7/9 activity and inhibition, Z′ score. In kind it is biochemical. Particulars: 384-well plate, 16 replicates, 300 μM sinefungin. On the procedure: For HTS experiments, samples were dispensed into a Grenier 781077 384-well flat bottom black plate using an Eppendorf Repeater […] pipetter to dispense reaction components. Z' scores were calculated from 16 well replicates in the 384-well plate. For the HTS SET7/9 activity assay, 3 μL of H3 peptide or water was added to 9 μL of reaction solution containing SET7/9 MTase, SAM, and NEB HMT Reaction Buffer in each well. Final concentrations are: 0.25 U/10 μL SET7/9, 25 μM SAM, 50 μM H3 peptide and 1×NEB HMT Reaction Buffer (50 mM Tris, pH 9.0, 5 mM MgCl2, and 4 mM DTT). After 30 min incubation at 37° C., to initiate the fluorescent biosensor reaction, 18 μL of biosensor reaction solution containing renatured RNA, DFHBI, and buffer was added to each well. […] In vitro fluorescence assays were conducted as described above. For the HTS SET7/9 inhibition assay, 4.5 μL of sinefungin or water was added to 8 μL of reaction solution containing SET7/9 MTase, and NEB HMT Reaction Buffer in each well. After 15 minutes incubation at 37° C., methylation reaction was initiated by adding 2.5 μL solution containing both SAM and H3 peptide. Final concentrations are: 0.25 U/10 μL SET7/9, 25 μM SAM, 50 μM H3 peptide, 300 μM sinefungin and 1×NEB HMT Reaction Buffer (50 mM Tris, pH 9.0, 5 mM MgCl2, and 4 mM DTT). After 30 min incubation at 37° C., to initiate the fluorescent biosensor reaction, 15 μL of biosensor reaction solution containing renatured RNA, DFHBI, and buffer was added to each well. […] In vitro fluorescence assays were conducted as described above.

Where [9] appears, read: 3 mM magnesium (FIG. 22), read-out: in vitro measured binding affinity for SAH.

With `CC1=N/C(=C\c2cc(F)c(O)c(F)c2)C(=O)N1C` [DFHBI, (Z)-4-(3,5-difluoro-4-hydroxybenzylidene)-1,2-dimethyl-1H-imidazol-5(4H)-one], in series [1], the Emission maximum is reported as 489 nm, the “Excitation Maximum” value is recorded as 423 nm, the Extinction coefficient is reported as 30100 M^−1- cm^−1 and the Fluorescence quantum yield was 0.0007. Also, in series [2], the Emission maximum worked out at 502 ± 1 nm, the “Excitation Maximum” value was 428 ± 1 nm and the Extinction coefficient turned out to be 30018 M^−1- cm^−1. Also, the Fluorescence quantum yield in series [2] (30° C., 10 mM MgCl2) is on record as 0.00072 ± 0.00013.
What is called IC50 is the concentration that gives 50% inhibition. Low readings indicate greater potency in that assay, high ones weaker potency in that assay. In the case of `Nc1ncnc2c1ncn2[C@@H]1O[C@H](C[C@@H](N)CC[C@H](N)C(=O)O)[C@@H](O)[C@H]1O` [Sinefungin], the IC50 amounted to 42000 ± 16000 nM in series [3] (initial SAM concentration 40 μM) and 26000 ± 5000 nM in series [3] (initial SAM concentration of 25 μM).

B1: Spinach2: fluorophore-binding RNA aptamer, SEQ ID NO: 92 (nucleic acid)
chain: GATGTAACTGAATGAAATGGTGAAGGACGGGTCCAGTAGGCTGCTTCGGCAGCCTACTTGTTGAGTAGAGTGTGAGCTCCGTAACTAGTTACATC
modifications: expressed or natural sequence
As for B1, the “cellular fluorescence activation over background” value in series [4] is reported as 34 fold. Moreover, the “fluorescence in the presence of ATP” value in series [5] was “showed the same effect”.

B2: Mpe1-5: SAH biosensor, SEQ ID NO: 39 (nucleic acid)
chain: ACTTTCGAGGAGCGTTGCAACTCCCTTGTTGAGTAGAGTGTGAGCTCCGTAACTAGTTACATCGCAAGATGTAACTGAATGAAATGGTGAAGGACGGGTCCAGGGAGCCAGGCTCGAAAGTCATCCCCCGATGCAACGGCGCTCACCCGCA
For B2, the Kd in series [6] (setting [9]) was 19 nM. Further, the Kd in series [6] (10 mM Mg^2+, 37° C., read-out: Kd for SAH) came out at 75 ± 7 nM. For the same molecule, the “fluorescence response to SAM” value in series [5] (10 μM of SAM) was “slight response to SAM”. In addition, in series [5], the “fluorescence response to SAH at low magnesium” value is “high fluorescence response to SAH”, the “fluorescence in the presence of ATP” value was “lower fluorescence” and the fluorescence turn-on is on record as around 4 fold. The “fold change in fluorescence between wild-type and MTAN knockout strain 2” value in series [7] is listed as 2.0 ×.

B3: Nmo1-4: SAH biosensor, SEQ ID NO: 65 (Table 2 prints 64) (nucleic acid)
chain: CTCGCCGAGGAGCGCTGCAACAGGTTGTTGAGTAGAGTGTGAGCTCCGTAACTAGTTACATCGCAAGATGTAACTGAATGAAATGGTGAAGGACGGGTCCACCTGCCAGGCTCGGCGATTATCGGGACCTTTAAACCAACGGCGCTCGGTTCAG
In the case of B3, in series [6] (setting [9]), the Kd is 750 nM. In series [5], the “fluorescence response to SAH at low magnesium” value is reported as “high fluorescence response to SAH” and the fluorescence turn-on was around 9 fold. For the same molecule, the “Z′ score, inhibitor screen” value in series [8] is reported as 0.75. The “fold change in fluorescence between wild-type and MTAN knockout strain 2” value in series [7] came out at 4.8 ×.
